Results on 63 substances are retold here after US20250213707A1, “COMPOUND FOR INCREASING EFFICACY OF ONCOLYTIC VIRUSES” (ABLEVIA BIOTECH GMBH, priority 2022, published 2025).

The first assay has as its target Polyclonal antibody ab6982 (Abcam). The experiment in a line: cyclic peptide microarray, hexon peptides.
Regarding ALEINLE (peptide), the rank of binding signal was determined as 33 rank. Same read-out and setting: the figure for DDDNEDE (peptide) is 96 rank. Still for that read-out and setting: for DDNEDEV (peptide) the value was 78 rank. Turning to DEVDEQA (peptide), the rank of binding signal came out at 10 rank.

In the case of DIETPDT (peptide), the rank of binding signal stood at 62 rank. Consider DRMYSFF (peptide), for which the rank of binding signal turned out to be 86 rank. The substance EDDDNED (peptide) yielded a rank of binding signal of 63 rank.

EDEVDEQ (peptide) gave a rank of binding signal of 126 rank.

In turn, EEDDDNE (peptide) yielded a rank of binding signal of 108 rank. On to EINLEEE (peptide), for which the rank of binding signal amounted to 6 rank.

ETPDTHI (peptide) came in with a rank of binding signal of 51 rank.

For EVDEQAE (peptide), the rank of binding signal amounted to 17 rank. GDRTRYF (peptide): the rank of binding signal was found to be 80 rank. With IETPDTH (peptide), the rank of binding signal is 45 rank.

For IGYQGFY (peptide), the rank of binding signal worked out at 136 rank.

The substance INLEEED (peptide) came in with a rank of binding signal of 32 rank. On to KDRMYSF (peptide), for which the rank of binding signal came out at 143 rank. LEINLEE (peptide) registered a rank of binding signal of 4 rank. The substance NIGYQGF (peptide) returned a rank of binding signal of 187 rank. Still for that read-out and setting: the figure for NLEEEDD (peptide) is 65 rank. TRYFSMW (peptide) yielded a rank of binding signal of 73 rank. In turn, VDEQAEQ (peptide) came in with a rank of binding signal of 20 rank. As to YSFFRNF (peptide), the rank of binding signal stood at 104 rank.

Another assay has the same target. Briefly: cyclic peptide microarray, fiber peptides.
AHLIIRF (peptide) yielded a rank of binding signal of 6 rank.

For the substance AQNQLNI (peptide), the rank of binding signal was 172 rank.

ARPSEDT (peptide) registered a rank of binding signal of 41 rank. In the case of ATSSYTF (peptide), the rank of binding signal amounted to 80 rank.

AYSMSFS (peptide) yielded a rank of binding signal of 167 rank. The same measure, in the same setting: the figure for DPEYWNE (peptide) is 53 rank. The substance DTFNPVY (peptide) registered a rank of binding signal of 130 rank. For EYWNFRN (peptide), the rank of binding signal worked out at 113 rank. The substance FLDPEYW (peptide) yielded a rank of binding signal of 50 rank. As to FSWDWSG (peptide), the rank of binding signal is 186 rank.

FVSPNG (peptide) showed a rank of binding signal of 13 rank.

Consider GQGPLFI (peptide), for which the rank of binding signal was 58 rank.

Consider HLIIRFD (peptide), for which the rank of binding signal came out at 60 rank.

For the substance HNLDINY (peptide), the rank of binding signal stood at 9 rank. Same read-out and setting: the figure for IFATSSY (peptide) is 104 rank; for LGQGPLF (peptide) it is 27 rank; for LGTGLSF (peptide) it is 44 rank. As to LNLRLGQ (peptide), the rank of binding signal worked out at 173 rank. For LNNSFLD (peptide), the rank of binding signal turned out to be 180 rank. As to MSFSWDW (peptide), the rank of binding signal is 22 rank. In turn, NKGLYLF (peptide) registered a rank of binding signal of 20 rank. Take NQLNLRL (peptide): the rank of binding signal amounted to 72 rank.

Take NYINEIF (peptide): the rank of binding signal was found to be 16 rank. The substance PELTPPF (peptide) had a rank of binding signal of 47 rank. Substance PEYWNFR (peptide) displayed a rank of binding signal of 31 rank.

In turn, QGPLFIN (peptide) displayed a rank of binding signal of 93 rank. As for QLNLRLG (peptide), the rank of binding signal amounted to 136 rank. On to QNQLNLR (peptide), for which the rank of binding signal worked out at 82 rank. QSAHLII (peptide) yielded a rank of binding signal of 126 rank. On to RPSEDTF (peptide), for which the rank of binding signal amounted to 24 rank.

For the substance SAHLIIR (peptide), the rank of binding signal worked out at 65 rank. In the case of SAYSMSF (peptide), the rank of binding signal came to 108 rank. The same measure, in the same setting: for SFSWDWS (peptide) the value was 100 rank; for SMSFSWD (peptide), 144 rank. SSYTFSY (peptide) yielded a rank of binding signal of 42 rank. For SWDWSGH (peptide), the rank of binding signal came to 193 rank. As to SYTFSYI (peptide), the rank of binding signal was 64 rank. Substance YINEIFA (peptide) gave a rank of binding signal of 168 rank. Turning to YSMSFSW (peptide), the rank of binding signal amounted to 8 rank. YTESYIA (peptide) came in with a rank of binding signal of 181 rank.
